Test results taken from FireProtDB (doi:10.1110/ps.041111405).

Conditions: Homo sapiens; pH 7; 37 °C; GdnHCl; Fluorescence; Sodium phosphate 10 mM; transition: 3; whole UniProt chain shown

B1: Gamma-crystallin D wild type, P07320 (protein)
chain: MGKITLYEDRGFQGRHYECSSDHPNLQPYLSRCNSARVDSGCWMLYEQPNYSGLQYFLRRGDYADHQQWMGLSDSVRSCRLIPHSGSHRIRLYEREDYRGQMIEFTEDCSCLQDRFRFNEIHSLNVLEGSWVLYELSNYRGRQYLLMPGDYRRYQDWGATNARVGSLRRVIDFS
Question: For B1, which denaturant m value is on record?
Answer: 3.1 kcal/mol/M

Question: What about the “denaturant midpoint (higher = more stable)” value of the same protein?
Answer: 2.8 M

Question: What about the unfolding free energy of the same protein?
Answer: 8.9 kcal/mol
